Assay results taken from publication PMC6159513.

T1: RGG3ΔRGG (UniProt P35637 449-526, del468-506)
T1 chain: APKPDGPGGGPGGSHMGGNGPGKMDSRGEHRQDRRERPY

B1: dsRNA (dsRNA)
RNA 1: UUAGGGUUAGGGUUAGGGUUAGGG
RNA 2: CCCUAACCCUAACCCUAACCCUAA
B2: dsDNA (dsDNA)
DNA 1: AGGGTTAGGGTTAGGGTTAGGG
DNA 2: CCCTAACCCTAACCCTAACCCT

Key:
Experiment in all cases: EMSA
TLS/FUS = TLS/FUS (UniProt P35637 1-526)
RGG3 = RGG3 (UniProt P35637 449-526)
TLS/FUSΔP = TLS/FUSΔP (UniProt P35637 1-526, del449-468)
TLS/FUSΔR = TLS/FUSΔR (UniProt P35637 1-506)
Chain of TLS/FUSΔR (P35637 1-506, stated change not applied): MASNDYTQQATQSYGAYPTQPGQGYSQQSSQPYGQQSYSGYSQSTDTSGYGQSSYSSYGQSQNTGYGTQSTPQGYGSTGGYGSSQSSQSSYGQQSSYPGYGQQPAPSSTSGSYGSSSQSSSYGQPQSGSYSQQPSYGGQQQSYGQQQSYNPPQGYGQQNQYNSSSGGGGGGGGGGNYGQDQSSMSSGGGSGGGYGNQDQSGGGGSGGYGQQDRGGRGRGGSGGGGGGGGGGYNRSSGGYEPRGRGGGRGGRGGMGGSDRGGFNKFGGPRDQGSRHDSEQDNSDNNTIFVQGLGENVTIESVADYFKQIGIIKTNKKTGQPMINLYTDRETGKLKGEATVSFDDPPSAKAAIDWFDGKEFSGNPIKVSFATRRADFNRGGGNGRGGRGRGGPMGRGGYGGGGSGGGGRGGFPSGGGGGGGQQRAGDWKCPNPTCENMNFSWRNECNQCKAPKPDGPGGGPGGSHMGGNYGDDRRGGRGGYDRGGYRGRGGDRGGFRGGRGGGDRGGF

RGG3ΔRGG = biological target: T1, RGG3ΔRGG
[1] = biological target: RBD (RGG1-RGG2-RGG3 containing) (UniProt P35637 212-526)
Chain of RBD (RGG1-RGG2-RGG3 containing) (P35637 212-526): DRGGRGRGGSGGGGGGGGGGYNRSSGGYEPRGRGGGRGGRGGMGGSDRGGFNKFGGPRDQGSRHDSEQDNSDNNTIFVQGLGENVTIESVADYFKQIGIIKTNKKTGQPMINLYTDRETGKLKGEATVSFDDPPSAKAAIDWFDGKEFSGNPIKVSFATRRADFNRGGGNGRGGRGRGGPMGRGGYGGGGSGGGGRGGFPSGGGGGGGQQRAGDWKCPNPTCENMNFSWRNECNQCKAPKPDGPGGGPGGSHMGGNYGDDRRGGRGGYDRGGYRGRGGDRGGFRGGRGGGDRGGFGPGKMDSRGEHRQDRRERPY

RGG3ΔP = RGG3ΔP (UniProt P35637 469-526)

| Binder | binding result (TLS/FUS) | binding result (RGG3) | binding result (TLS/FUSΔP) | binding result (TLS/FUSΔR) | binding result (RGG3ΔRGG) | Kd [1] | binding result (RGG3ΔP) |
| --- | --- | --- | --- | --- | --- | --- | --- |
| UUAGGGUUAGUGUUAGUGUUAGGG (ssRNA) [ssRNA] | binds | no binding | no binding | no binding | no binding | – | – |
| AGGGTTAGTGTTAGTGTTAGGG (ssDNA) [ssDNA] | – | no binding | no binding | no binding | no binding | – | – |
| UUAGGGUUAGGGUUAGGGUUAGGG (structured_RNA) [TERRA] | – | – | no binding | no binding | no binding | 6.2 ± 2 nM | no binding |
| AGGGTTAGGGTTAGGGTTAGGG (structured_DNA) [Htelo] | – | – | no binding | no binding | no binding | 6.7 ± 2 nM | no binding |
| B1 | – | – | no binding | no binding | – | – | – |
| B2 | – | – | no binding | no binding | – | – | – |
